Measured values: the Human Domainome abundance scans (Beltran et al. 2025)
± gives the uncertainty stated by the source.

B1: POU domain, class 4, transcription factor 1, residues 266 to 347; numbered along this chain, Q01851 (parent)
chain: RELEAFAERFKQRRIKLGVTQADVGSALANLKIPGVGSLSQSTICRFESLTLSHNNMIALKPILQAWLEEAEGAQREKMNKP
B2: Syntaxin-binding protein 4, residues 493 to 538; numbered along this chain, Q6ZWJ1 (parent)
chain: LDMDCLPYGWEEAYTADGIKYFINHVTQTTSWIHPVMSVLNLSRSE

Variants of: B1
Experiment: abundance fitness (aPCA) (normalised: wild type 0, dead -1); higher = more abundant; growth selection in yeast, the domain comes from the species named
Conditions: Homo sapiens

In order of rising abundance fitness:
1. RELEAFAERFKQRRIKLGVTQADVGSALANLKIPGVGSLSQSTICRFESLTLSHNNMIALKPILQAWLEEAEGAQREKMNHP [K81H]  -0.432 ± 0.39
2. RELEAFAERFKQRRIKLGVTQADVGSALANLKIPGVGSLSQSTICRFESLTLSHNNMIALKPILQAWLEEAEGAQREKMNYP [K81Y]  -0.224 ± 0.12
3. RELEAFAERFKQRRIKLGVTQADVGSALANLKIPGVGSLSQSTICRFESLTLSHNNMIALKPILQAWLEEAEGAQREKMNKL [P82L]  -0.123 ± 0.18
4. RELEAFAERFKQRRIKLGVTQADVGSALANLKIPGVGSLSQSTICRFESLTLSHNNMIALKPILQAWLEEAEGAQREKMNKW [P82W]  -0.116 ± 0.14
5. RELEAFAERFKQRRIKLGVTQADVGSALANLKIPGVGSLSQSTICRFESLTLSHNNMIALKPILQAWLEEAEGAQREKMNIP [K81I]  -0.112 ± 0.32
6. RELEAFAERFKQRRIKLGVTQADVGSALANLKIPGVGSLSQSTICRFESLTLSHNNMIALKPILQAWLEEAEGAQREKMNKF [P82F]  -0.105 ± 0.19
7. RELEAFAERFKQRRIKLGVTQADVGSALANLKIPGVGSLSQSTICRFESLTLSHNNMIALKPILQAWLEEAEGAQREKMWKP [N80W]  -0.089 ± 0.045
8. RELEAFAERFKQRRIKLGVTQADVGSALANLKIPGVGSLSQSTICRFESLTLSHNNMIALKPILQAWLEEAEGAQREKMNPP [K81P]  -0.075 ± 0.14
9. RELEAFAERFKQRRIKLGVTQADVGSALANLKIPGVGSLSQSTICRFESLTLSHNNMIALKPILQAWLEEAEGAQREKMNMP [K81M]  -0.059 ± 0.14
10. RELEAFAERFKQRRIKLGVTQADVGSALANLKIPGVGSLSQSTICRFESLTLSHNNMIALKPILQAWLEEAEGAQREKMNKV [P82V]  -0.053 ± 0.095
11. RELEAFAERFKQRRIKLGVTQADVGSALANLKIPGVGSLSQSTICRFESLTLSHNNMIALKPILQAWLEEAEGAQREKMNVP [K81V]  -0.047 ± 0.059
12. RELEAFAERFKQRRIKLGVTQADVGSALANLKIPGVGSLSQSTICRFESLTLSHNNMIALKPILQAWLEEAEGAQREKMNKK [P82K]  -0.047 ± 0.16
13. RELEAFAERFKQRRIKLGVTQADVGSALANLKIPGVGSLSQSTICRFESLTLSHNNMIALKPILQAWLEEAEGAQREKMNQP [K81Q]  -0.042 ± 0.18
14. RELEAFAERFKQRRIKLGVTQADVGSALANLKIPGVGSLSQSTICRFESLTLSHNNMIALKPILQAWLEEAEGAQREKMYKP [N80Y]  -0.037 ± 0.11
15. RELEAFAERFKQRRIKLGVTQADVGSALANLKIPGVGSLSQSTICRFESLTLSHNNMIALKPILQAWLEEAEGAQREKMRKP [N80R]  -0.032 ± 0.034
16. RELEAFAERFKQRRIKLGVTQADVGSALANLKIPGVGSLSQSTICRFESLTLSHNNMIALKPILQAWLEEAEGAQREKMNDP [K81D]  -0.024 ± 0.11
17. RELEAFAERFKQRRIKLGVTQADVGSALANLKIPGVGSLSQSTICRFESLTLSHNNMIALKPILQAWLEEAEGAQREKMNSP [K81S]  -0.016 ± 0.063
18. RELEAFAERFKQRRIKLGVTQADVGSALANLKIPGVGSLSQSTICRFESLTLSHNNMIALKPILQAWLEEAEGAQREKMNKG [P82G]  -0.011 ± 0.071
19. RELEAFAERFKQRRIKLGVTQADVGSALANLKIPGVGSLSQSTICRFESLTLSHNNMIALKPILQAWLEEAEGAQREKMTKP [N80T]  -0.007 ± 0.059
20. RELEAFAERFKQRRIKLGVTQADVGSALANLKIPGVGSLSQSTICRFESLTLSHNNMIALKPILQAWLEEAEGAQREKMNKE [P82E]  -0.005 ± 0.12
21. RELEAFAERFKQRRIKLGVTQADVGSALANLKIPGVGSLSQSTICRFESLTLSHNNMIALKPILQAWLEEAEGAQREKMMKP [N80M]  -0.004 ± 0.045
22. RELEAFAERFKQRRIKLGVTQADVGSALANLKIPGVGSLSQSTICRFESLTLSHNNMIALKPILQAWLEEAEGAQREKMNKT [P82T]  -0.001 ± 0.082
23. RELEAFAERFKQRRIKLGVTQADVGSALANLKIPGVGSLSQSTICRFESLTLSHNNMIALKPILQAWLEEAEGAQREKMNKM [P82M]  0.008 ± 0.21
24. RELEAFAERFKQRRIKLGVTQADVGSALANLKIPGVGSLSQSTICRFESLTLSHNNMIALKPILQAWLEEAEGAQREKMNKQ [P82Q]  0.01 ± 0.071
25. RELEAFAERFKQRRIKLGVTQADVGSALANLKIPGVGSLSQSTICRFESLTLSHNNMIALKPILQAWLEEAEGAQREKMNKD [P82D]  0.019 ± 0.14
26. RELEAFAERFKQRRIKLGVTQADVGSALANLKIPGVGSLSQSTICRFESLTLSHNNMIALKPILQAWLEEAEGAQREKMNGP [K81G]  0.021 ± 0.048
27. RELEAFAERFKQRRIKLGVTQADVGSALANLKIPGVGSLSQSTICRFESLTLSHNNMIALKPILQAWLEEAEGAQREKMNWP [K81W]  0.027 ± 0.056
28. RELEAFAERFKQRRIKLGVTQADVGSALANLKIPGVGSLSQSTICRFESLTLSHNNMIALKPILQAWLEEAEGAQREKMNTP [K81T]  0.03 ± 0.098
29. RELEAFAERFKQRRIKLGVTQADVGSALANLKIPGVGSLSQSTICRFESLTLSHNNMIALKPILQAWLEEAEGAQREKMNLP [K81L]  0.043 ± 0.07
30. RELEAFAERFKQRRIKLGVTQADVGSALANLKIPGVGSLSQSTICRFESLTLSHNNMIALKPILQAWLEEAEGAQREKMSKP [N80S]  0.051 ± 0.04
31. RELEAFAERFKQRRIKLGVTQADVGSALANLKIPGVGSLSQSTICRFESLTLSHNNMIALKPILQAWLEEAEGAQREKMPKP [N80P]  0.073 ± 0.058
32. RELEAFAERFKQRRIKLGVTQADVGSALANLKIPGVGSLSQSTICRFESLTLSHNNMIALKPILQAWLEEAEGAQREKMNKA [P82A]  0.086 ± 0.079
33. RELEAFAERFKQRRIKLGVTQADVGSALANLKIPGVGSLSQSTICRFESLTLSHNNMIALKPILQAWLEEAEGAQREKMQKP [N80Q]  0.091 ± 0.061
34. RELEAFAERFKQRRIKLGVTQADVGSALANLKIPGVGSLSQSTICRFESLTLSHNNMIALKPILQAWLEEAEGAQREKMNKY [P82Y]  0.095 ± 0.34
35. RELEAFAERFKQRRIKLGVTQADVGSALANLKIPGVGSLSQSTICRFESLTLSHNNMIALKPILQAWLEEAEGAQREKMVKP [N80V]  0.098 ± 0.042
36. RELEAFAERFKQRRIKLGVTQADVGSALANLKIPGVGSLSQSTICRFESLTLSHNNMIALKPILQAWLEEAEGAQREKMNCP [K81C]  0.1 ± 0.15
37. RELEAFAERFKQRRIKLGVTQADVGSALANLKIPGVGSLSQSTICRFESLTLSHNNMIALKPILQAWLEEAEGAQREKMNAP [K81A]  0.148 ± 0.075
38. RELEAFAERFKQRRIKLGVTQADVGSALANLKIPGVGSLSQSTICRFESLTLSHNNMIALKPILQAWLEEAEGAQREKMNFP [K81F]  0.198 ± 0.27

Variants of: B2
Experiment: as above
Conditions: Homo sapiens

In order of rising abundance fitness:
1. V36P  -0.597 ± 0.12
2. V39W  -0.55 ± 0.13
3. V39A  -0.135 ± 0.095
4. V39Q  0.223 ± 0.12
5. T30S  0.363 ± 0.086
6. V36Q  0.391 ± 0.1
7. V39P  1.03 ± 0.11
